This note sets out measurements from paper PMC6677129.

In this experiment the target is repeat domain (RPT) of Pmel17 (human) (UniProt P40967). As to the kind of experiment: co-sedimentation.

In turn, “repeat domain (RPT) of Pmel17 (from UniProt P40967 315-444) (domain or fragment)” came in with a percent of RPT left in the supernatant, 0.1 mM LPG of 54%; a percent of RPT left in the supernatant, 0.5 mM LPG of 16%; a percent of protein in the supernatant, 0 mM LPG of 108%; a percent of protein in the supernatant, 10 mM LPG of 92%.
